Assays:
PAR1 = target: T1, PAR1 (Homo sapiens, UniProt P25116); assay: Binding of MBP-Gαq to purified, reconstituted activated PAR1 (ELISA); set-up: made in house; host or cells: Sf9 insect cells infected with ThR/pBluebac recombinant virus, purified on an anti-PAR1 monoclonal antibody column; conditions: purified reconstituted PAR1 with thrombin receptor activating peptide
T1 sequence (P25116 22-425): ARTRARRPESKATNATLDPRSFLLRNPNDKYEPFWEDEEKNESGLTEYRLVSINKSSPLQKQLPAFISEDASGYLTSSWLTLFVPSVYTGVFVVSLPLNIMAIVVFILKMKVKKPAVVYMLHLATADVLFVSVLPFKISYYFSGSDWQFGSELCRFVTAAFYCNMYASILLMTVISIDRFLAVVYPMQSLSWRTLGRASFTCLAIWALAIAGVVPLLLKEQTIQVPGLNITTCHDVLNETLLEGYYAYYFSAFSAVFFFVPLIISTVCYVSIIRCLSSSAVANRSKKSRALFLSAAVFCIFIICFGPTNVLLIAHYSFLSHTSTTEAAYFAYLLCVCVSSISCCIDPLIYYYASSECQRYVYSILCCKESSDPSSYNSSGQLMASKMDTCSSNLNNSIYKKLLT
Method: Microtiter wells were coated with purified, reconstituted PAR1 in the presence of […] thrombin receptor activating peptide, as described above in Example 6. Purified maltose binding protein-Gαq (MBP-Gαq) was added at the concentrations indicated in FIG. 11 and incubated one hour on a shaker at 4° C. The wells were rinsed and then probed with a rabbit anti-maltose binding protein antibody, followed by alkaline phosphatase conjugated secondary antibodies, as described above. Substrate was added and the color was allowed to develop about 20 minutes. Absorbance at 405 nm was measured and dose-response curves were calculated using GraphPad Prism (version 2.0). See results in FIG. 11.

rhodopsin = target: T2, rhodopsin (Bos taurus, UniProt P02699); assay: "extra MII" assay: stabilization of metarhodopsin II; assay type: biochemical, bovine
T2 construct: Bovine rod outer segments (rhodopsin-containing membranes) were prepared from fresh retinas; from tissue; host or cells: bovine retina, rod outer segment membranes (EDTA- and urea-washed)
T2 sequence (P02699 whole entry): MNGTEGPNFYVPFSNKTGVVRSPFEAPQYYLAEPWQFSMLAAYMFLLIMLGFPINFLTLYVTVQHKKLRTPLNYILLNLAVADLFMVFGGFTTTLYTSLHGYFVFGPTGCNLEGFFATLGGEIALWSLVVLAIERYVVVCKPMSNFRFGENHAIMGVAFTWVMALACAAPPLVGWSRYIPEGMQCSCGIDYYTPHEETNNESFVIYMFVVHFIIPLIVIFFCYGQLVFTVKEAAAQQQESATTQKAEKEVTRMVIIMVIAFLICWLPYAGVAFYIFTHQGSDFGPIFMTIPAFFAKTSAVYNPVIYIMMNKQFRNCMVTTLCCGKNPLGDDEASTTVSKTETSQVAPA
Excerpt: Rhodopsin can be measured spectrophotometrically in many of its conformational states. The high affinity, biologically active rhodopsin state can be easily differentiated from its precursor, MI, by the “extra” MII assay. See Example 35. This assay relies on the observation that under conditions of high pH and low temperature, MII is stabilized in the presence of Gt and can be spectrophotometrically measured. The ability of the C-terminal peptide to stabilize Meta II in the same manner as the heterotrimeric Gt, provides the tools to investigate the structural basis of the interaction of G proteins with the agonist binding sites of activated receptors.
For the “extra MII” assay, EDTA-washed rhodopsin (Example 5; 5 μM) is incubated in a 50 mM HEPES buffer, pH 8.2, with 100 mM NaCl, 1 mM MgCl2, and 1 mM DTT at 5.3° C., in the absence or presence of varying concentrations of Gt340-350 analogs or Gt. The sample is maintained at 5.4° C. using a water-jacketed and thermostated circulator cuvette holder in an SLM Aminco DW2000 spectrophotometer at 390 and 440 nm. A flash of light bleaching 10% of the rhodopsin is presented and after a 1 min incubation, a second spectrum is measured and the difference in spectrum calculated. “Extra” MII is calculated as the difference between the absorbance at 390 and 440. Dose response curves of MII stabilization by αt340350 (λ), mutant α340-350K341L(ν), and heterotrimeric Gt (v) were analyzed by non-linear regression using the program GraphPad PRISM and are shown in FIG. 23.
EDTA-washed rhodopsin (5 μM) was incubated in a 50 mM HEPES buffer, pH 8.2, with 100 mM NaCl, 1 mM MgCl2, and 1 mM DTT at 5.3° C., and “extra” MII was measured. For compounds that enhanced MBP-8 binding over 25% using the color coded readout, dose studies were performed to generate EC50 curves. Table XXII below provides the calculated EC50 for metarhodopsin II stabilization of each compound.

[1] = target: T3, light-activated rhodopsin (Bos taurus, UniProt P02699); assay: Competition of heterotrimeric Gt with MBP high affinity peptide fusion proteins for rhodopsin; assay type: binding, bovine; conditions: 1 μM heterotrimeric Gt
T3 construct: Bovine rod outer segments (rhodopsin-containing membranes) were prepared from fresh retinas; from tissue; host or cells: bovine retina, rod outer segment membranes (EDTA- and urea-washed)
T3 sequence (P02699 whole entry, the tested form may be a part): as the sequence (P02699 whole entry) above
Method: When light-activated rhodopsin was screened for peptides based on the C-terminus of Gt, a large number of high-affinity sequences were obtained. Binding of MBP fusion proteins containing the high affinity peptide from the library (sequences from clones 8, 9, 10, 18, 23, 24, as well as pELM17 which encodes the wild-type peptide sequence, and pELM6 which contains no peptide; MBP-8, MBP-9, MBP-10, MBP-18, MBP-23, MBP-24, MBP-pELM17) were assessed for their ability to bind rhodopsin (0.5 μg rhodopsin/well) in the presence or absence of heterotrimeric Gt.
Lysate (50 μl) from each clone was added and incubated in the light. After 45 minutes, 1 μM heterotrimeric Gt was added and the solution incubated for 30 minutes. Anti-MBP antibody was added, followed by goat anti-rabbit alkaline phosphatase conjugated antibody and substrate. The color was allowed to develop.

Row | Substance | IC50 (PAR1) [nM] | stabilization of MII (in words) (rhodopsin) | effect on high affinity peptide fusion protein binding to light-activated rhodopsin (in words) [1]
1 | MBP-Gαq: purified maltose binding protein fused to native Gαq C-terminal peptide | 214 |  | 
2 | heterotrimeric Gt: heterotrimeric G protein, transducin (Gt) [reference compound] |  | stabilize the active form of rhodopsin | competitively inhibited
